The values below come from article PMC8054479 (Nature, 2020).

The target in the experiment is T1, SMCR8 (Smith-Magenis syndrome chromosome region, candidate 8) (human, UniProt Q8TEV9 1-937).
T1 sequence: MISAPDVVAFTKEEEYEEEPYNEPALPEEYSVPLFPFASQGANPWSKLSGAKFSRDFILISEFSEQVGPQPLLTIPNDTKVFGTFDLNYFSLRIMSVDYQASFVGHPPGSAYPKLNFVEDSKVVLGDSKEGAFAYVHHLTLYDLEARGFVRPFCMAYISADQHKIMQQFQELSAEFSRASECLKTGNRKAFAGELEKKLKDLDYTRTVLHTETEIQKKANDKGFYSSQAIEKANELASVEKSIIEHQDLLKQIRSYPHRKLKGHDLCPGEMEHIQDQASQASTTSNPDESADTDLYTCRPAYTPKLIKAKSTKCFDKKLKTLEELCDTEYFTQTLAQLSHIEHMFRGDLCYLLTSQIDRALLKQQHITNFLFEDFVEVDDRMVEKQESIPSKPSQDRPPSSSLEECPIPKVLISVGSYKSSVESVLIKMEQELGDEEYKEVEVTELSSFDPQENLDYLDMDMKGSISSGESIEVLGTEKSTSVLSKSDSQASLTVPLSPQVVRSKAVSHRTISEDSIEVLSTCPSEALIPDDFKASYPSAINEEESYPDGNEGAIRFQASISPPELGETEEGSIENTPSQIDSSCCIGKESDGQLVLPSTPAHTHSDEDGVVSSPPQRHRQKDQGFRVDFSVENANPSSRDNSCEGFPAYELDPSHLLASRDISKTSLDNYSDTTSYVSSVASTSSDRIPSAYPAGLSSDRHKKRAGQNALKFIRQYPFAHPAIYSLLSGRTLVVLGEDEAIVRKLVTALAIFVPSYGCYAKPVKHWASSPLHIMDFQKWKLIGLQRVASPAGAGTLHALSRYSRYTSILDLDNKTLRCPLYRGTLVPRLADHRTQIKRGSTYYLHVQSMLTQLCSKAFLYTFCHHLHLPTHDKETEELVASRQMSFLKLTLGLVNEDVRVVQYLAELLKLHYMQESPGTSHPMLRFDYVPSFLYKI
Briefly: cryo-EM structure.

B1: C9orf72 (natural protein)
chain: MSTLCPPPSPAVAKTEIALSGKSPLLAATFAYWDNILGPRVRHIWAPKTEQVLLSDGEITFLANHTLNGEILRNAESGAIDVKFFVLSEKGVIIVSLIFDGNWNGDRSTYGLSIILPQTELSFYLPLHRVCVDRLTHIIRKGRIWMHKERQENVQKIILEGTERMEDQGQSIIPMLTGEVIPVMELLSSMKSHSVPEEIDIADTVLNDDDIGDSCHEGFLLNAISSHLQTCGCSVVVGSSAEKVNKIVRTLCLFLTPAERKCSRLCEAESSFKYESGLFVQGLLKDSTGSFVLPFRQVMYAPYPTTHIDVDVNTVKQMPPCHEHIYNQRRYMRSELTAFWRATSEEDMAQDTIIYTDESFTPDLNIFQDVLHRDTLVKAFLDQVFQLKPGLSLRSTFLAQFLLVLHRKALTLIKYIEDDTQKGKKPFKSLRNLKIDLDLTAEGDLNIIMALAEKIKPGLHSFIFGRPFYTSVQERDVLMTF
As to B1, the binding result is listed as “binds”.

B2: WDR41 (WD repeat protein 41) (natural protein)
chain: MLRWLIGGGREPQGLAEKSPLQTIGEEQTQNPYTELLVLKAHHDIVRFLVQLDDYRFASAGDDGIVVVWNAQTGEKLLELNGHTQKITAIITFPSLESCEEKNQLILTASADRTVIVWDGDTTRQVQRISCFQSTVKCLTVLQRLDVWLSGGNDLCVWNRKLDLLCKTSHLSDTGISALVEIPKNCVVAAVGKELIIFRLVAPTEGSLEWDILEVKRLLDHQDNILSLINVNDLSFVTGSHVGELIIWDALDWTMQAYERNFWDPSPQLDTQQEIKLCQKSNDISIHHFTCDEENVFAAVGRGLYVYSLQMKRVIACQKTAHDSNVLHVARLPNRQLISCSEDGSVRIWELREKQQLAAEPVPTGFFNMWGFGRVSKQASQPVKKQQENATSCSLELIGDLIGHSSSVEMFLYFEDHGLVTCSADHLIILWKNGERESGLRSLRLFQKLEENGDLYLAV
With B2, the binding result is “binds”.
